# Laboratory results from the nanobody polyreactivity screen of Harvey et al. (2022).
# Test: yeast display, Sf9 membrane polyspecificity reagent, FACS + sequencing; frameworks hold sequencing errors
# Outline: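 Synthetic nanobody libraries on Saccharomyces cerevisiae BJ5465 were galactose-induced for 36–48 hours, stained 1 hour at 4 °C with 10% biotinylated, detergent-solubilized Sf9 membrane reagent and enriched on streptavidin microbeads. FACS then separated cells into low and high (top ~1%) gates by anti-HA (expression) and streptavidin (reagent binding) fluorescence. Genes were colony-PCR amplified, MiSeq 2 × 250 sequenced and CDR-length filtered. A clone's polyreactivity label is that of its gate of origin.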
row,Sequence,polyreactivity (PSR sort gate)
1,QVQLVESGGGLVQAGGSLRLSCAASGFTFGTYAMGWYRQAPGKERELVAAISARGGSTYYADSVKGRFTISRDNAKNTVYLQMNSLKPEDTAVYYCAAYYGRHVTPPTGYDYWGQGTQVTVSS,high polyreactivity
2,QVKLVESGRGLVQAGGSLRLSCAASGITFRSYAMGWYINATGKERELVATLSSSGGNTNYADSVKGRFTISRDNAKNTVYLQMNSLKPEDTAVYYCAAELWRYYYVVPGRYDDWGQGTQVTVSS,high polyreactivity
3,QVQLVESGGGLVQAGGSLRLSCAASGFILFPYAMGWYRQAPGKERELVAAIRSDDTTYYADSVKGRFTISRDNAKNTVYLQMNSLKPEDTAVYYCNAARTRWATGYDYWGQGTQVTVSS,low polyreactivity
4,QVQLVESGGGLVQAGGSLRLSCAASGFTLVLNAMGWYRQAPGKERELVAAIRRSAGSTYYADSVKGRFTISRDNAKNTVYLQLNSLKPEDTAVYYCAACFLWAKYAYGHWGTFNYWGQGTQVTVSS,low polyreactivity
5,QVQLVESGGGLVQAGGSLGLSSAASGRTFGVYAMGWYRQAPGKERELVAGIRWRGGSTYYADSVKGRFTISRDNAKNTVYLQMNSLKPEDTAVYYCAADVYLVKYDYWGQGTQVTVSS,low polyreactivity
6,QVQLVESGGGLVQAGGSLRLSCAASGFTFRDYAMGWYRQAPGKERELVAAITRGGSTNYADSVKGRFTISRDNAKNTVYLQMNSLKPEDTAVYYCAATPSWRWHVFAEFNSWGQGTQVTVSS,high polyreactivity
7,QVQLVESGGGLVQAGGSLRLSCAASGRSFYRNAMGWYRQAPGKERELVAAITSSGASTYYADSVKGRFTISRDNAKNTVYLQMNSLKPEDTAVYYCAAKYVYSVGNYRYDYWGQGTQVTVSS,low polyreactivity
8,QVQLVESGGGLVQAGGSLRLSCAASGRTFYKYAMGWSRQAPGKERELVAVINWSGGRTYADSVKGRFTISRDNAKNTVYLQMNSLKPEDTAVYYCAADRGGLTHRWERNDYWGQGTQVTVSS,low polyreactivity
9,QVQLVESGAGLDQAGGSLRLSSAASGNTFQYYAMGSYRQAAGKERELVASISYRGGRTYYADSVKGRFTISRDNAKYTVYLQMNSLKPADTAVYYCAKSKYTNVLYNYWGQGTQVTVSS,high polyreactivity
10,QVQLVESGGGLVQAGGSLRLCCAASGSIFRPNAMGWYRQAPGKERELVAGISSRGGSTYYADSVKGRFTISRDNAKNTVYLQMNSLKPEDTAVYYCNALTYSSQRNSFYYSFDHWGQGTQVTVSS,high polyreactivity
11,QVQIVESGGGLVQAGGSLRLSCAASGFIFQTNVMGWYRQAPGKERELVAAISSGDSTYYADSVKGRFTISRDNAKNTVYLQMNSLKPEDTAVYYCAADVLGTTTTVGGFNYWGQGTQVTVSS,low polyreactivity
12,QVQLVESGGGLVQAGGSLRLSCAASGSIFRHYAMGWYRQAPGKERELVAAISAIGGSTYADSVKGRFTISRDNAKNTVYLQMNSLKPEDTAVYYCNARSYTSYVYHEAGEFDYWGQGTQVTVSS,low polyreactivity
13,QVQLVESGGGLVQAGASLRLSCAASGSIFTRNTMGWYRQAPGKERELVARISGGRTNYADSVKGRFTISRDNAKNTVYLQMYSLKPVDTAVYYCAARGLYTPTKRSGDPYYYWGQGSQVTVSS,high polyreactivity
14,QVQLVESGGGLVQAGVSLRLSCAASGRTFSYYVMGWYRQAPGKETELVAAITTRTSSTYYADSVKGRFTISRDNAKNTVYLQMNSLKPEDTAVYYCARRPRARAYNYWGQGTQVTVSS,high polyreactivity
15,QVQLVESGGGLVQAGGSLRLSCAASGSIFTINTMGWYRPAPGKERELVAAITGSGGITYYADSVKGRFTISRDYAKNTVYLQLNTLKPEDTAVYYCAADYWWTIPEEPQGLGAVDYWGLGTQVTVSS,low polyreactivity
16,QVQLVDSGGGLVQAGGILRLSCAASGRTFTYYTMGWYRQAPGKESEMVAAITWSGGRTYYADSVKGRFTISRDNAKNTVYLQMNILKPEDTAVYYCAAYEIYYEFDSWGQGTQVTVSS,low polyreactivity
17,QVQLVESGGGLVQAGGSLRLSCAASGFTFTTYVMGSYRQAPGKERELVAAISRRGTSTRYADSVKGRFTISRDNAKNTVYLQMNSLKPEDTAVYYCAADRPYSIVPYDYWGQGTQVTVSS,high polyreactivity
18,QVQLVESGGGLVQAGGSLRLICAASGRIFYSYAMGWYRQAPGKERELVAAITVSGGSTFYADSVKGRFTISRDNAKNTVYLQMNSLKPEDTAVYYCAATRFSQYDWGQGTQVTVSS,high polyreactivity
19,QVQLVESRGGLVQAGGSLRLSCAASGRIFAWNAMGWSRQAPGKERELVAVITSGGNTNYADSVTGRFTISRDNAKNTVYLQLNSLKPEDTAVYYCPKIGYAKRTRFWSHYDYWGQGTQVTVSS,high polyreactivity
20,QVQLVESGGGLVQAGGSLGLSCAASGLIFRKYAMGWYRQAPGKERELVATINRSGGSTYYADSVKGRFTISRDNAKNTVYLQMNSLKPEATAVYYCATDRLSYGYKPGYTFYYWEQGTQVTVSS,high polyreactivity
21,QVQLVESGGGLVQAGGSLRLSCAASGRIFYKYVMGWDRQAPGKERELVADINRSGGTTYYADSVKGRFTISRDNAKNTVYLQMNSLKPEDTAVYYCTATLPDYWPYYYYQGGDDYWGQGTQVNVSS,low polyreactivity
22,QVQLVESGGGLVQAGGSLRLSCAASGFIFYYNAMGWYRQAPGKERELVASISFSGGSTYYADSVKGRFTISRDNAKNTVYLQKNSLKPEDTAVYYCAARYPGGRPWPRYYYWGQGNQVTVSS,high polyreactivity

row,Sequence,polyreactivity (PSR sort gate)
1,QVHLVESGGGLVQAGGSLRLSCPASGFTFDNYAMGWYRQPPGKERELVAAINWSGGRTYYADSVKGRFTISRDNAKNTVYLQMNSLKPEDTAVYYCGVPGYVRMDYWGQGTQVTVSS,high polyreactivity
2,QLQLEESGGGLVQAGGSLRLSCAASGSIFDDYAMGWYRQAPGKERELVAAITSGGSTYYADSVKGRFTISRDNAKNTVYLQLNRLKPEDTAVYYRATRYHWSSSFAPVGAYGYWGQGTQVTVSS,low polyreactivity
3,QVQLVESGGGLVQAGGTLRLSCAASGYTFVVYAMGWYRQAPGKERELVASISRSGGSTYYADSVKGRFTISRDNAKNTVYLQMNSLKPEDTAVYYCAADVWRVQHRGYNYWGQGTQVTVSS,high polyreactivity
4,QVQLVESGGGLVQAGGSLRLSCAASGNTFYRYAMGWNRQAPGKERELVAAISNGGSTNYADSVKGRFTISRDNAKNTVYLQMNSLKPEDSAVYYWAAANTRRYTHGFWGHGTQVTVSS,high polyreactivity
5,QVHLVESGVGLVQAGGTLRLSCAASGRTFRVYALVWYRQAPGKERELVAAITWNGGSTYYADSVKGRFTISRDNAKNNVYLQMNRLKPEDTAVYYSAAARYAYNIWSGAYDYWGQGTQVTVSS,high polyreactivity
6,QVQLVESGGGLVQAGGRLRLSCAASGRTFDVYAMVWYRQAPGKERELVAAISKRGGSTYYADSVKGRFTISRDNAKNTVYLQMNSLKPEDTAVYYCNAYQTGWKGYDYWGQGTQVTVSS,high polyreactivity
7,QVQLVESGGGLVQAGGSLRLSCAASGITFWKYAMGWYRQAPGKERELVAAISGRGGSTYYADSVKGRFTISRDNAKNTVYLQMNSLKPEDTAVYYCAVGYRGWDGYWGQGTQVTVSS,high polyreactivity
8,QVQLVESGGGLVQAGGSLRLSCAASGSIFYKYAMGWYRQAPGKERELVAAISTSGGSTYYADSVKGRFTISRDNAKNTVYLQMNSLKPEDTAVYYCAKARSYGLGRSYYWGQGTQVTVSS,high polyreactivity
9,QVQLVESGGGLVQAGGSLRLSCAASGRTFQRYAMGWYRQAPGKERELVAAISFSGGSTYYADSVKGRFTISRDNAKNTVYLQMNSLKPEDTAVYYCAAYHARSGYDSWGQGTQVTVSS,high polyreactivity
10,QVQLVESGGGLVQAGGSLRLSCAASGRIFSYYDIGWYRQAPGKERELVAAITGGGRTIYADSVKGRFTISRDNAKNTVYLQMNILKTEDTAVYYCNARARSRKFYYWGQGTQVTVSS,high polyreactivity
11,QVQLVESWGGLVQAGGSLRLSCAASGSTFSLYTMGWYRQAPGKERELVATIDSGGSTNYADSVKGRFTISRDNAKNTVYLQMNSLKPEDTAVYYCVDYYNGYTHNYNYWGQGTQVTVSS,low polyreactivity
12,QVQLVESGGGLVQAGGSLRLSCAASGSTFDGYAMGWYRQAPGKERELVASISWDDVRTYYADSVKGRFTISRDNAKNTVYLQMNSLKPEDTAVYDCAKGDIEYFWSRIYGYWGQGTQVTVSS,low polyreactivity
13,QVQLVESGGGLVQAGGSLRLSCAASGSIFVNNALGWYRQAPGKERELVAAISSRSSRTFYADSVKGRFTISRDNAKNTVYLQMNSLKPEDTAVYYCAVKKRAPDGDYWGQGTQVTVSS,high polyreactivity
14,QVQLVESGGGLVQAGGSLRLSCAASGRTFHRYAMGWYRPAPGKERELVAAISRGGITYYADSVKGRFTISRDNAKNTVYLQMNSLKPEDTAVYFCAALYRYYHESSPFDYWGQGTQVTVSS,high polyreactivity
15,QVQLVESGGGLVQAGGSLRLSCAASGSTFYTNAMGWYRQAPGKERELVASITDGGDSTHYADSVKGRFTISRDNAKNTVYLQMNSLKPEDTAVYYCAVDYQYFQEYDSWGQGTQVTVSS,low polyreactivity
16,QVQLVESGGGLVQAGGSLLLSCAASGRIFDRNAIGWYRQAPGKERELVAAINSVGTTYYADSVKGRFTISRDNAKNTVYLQMNSLKPEDTAVYYCAARSAYRRGYWGQGTQVTLSS,high polyreactivity
17,QVQLVESGGGLVQAGGSLRLSCAASGSIFDSNAMGWYRQAPGKERELVAAITGSGSTNYADSVKGRFTISRDNAKNTVYLQMNSLKPEDTAVYYCNAQAPYTEFDYWGQGTQVTVSS,low polyreactivity
18,QDQLVESGGGLVQAGGSLRLSCAASGSIFQYYAMGWYRQAPGKERELVAAISYSGDGTFYADSVKGRFTISRDNAKNSVYLQMNSLKPVDTAVYYCAASSTGYGGSTYYYWGQGTQVTVSS,low polyreactivity
19,QVQLVESGGGLVQAGGSLRLSCAASGRTIDYNGMGWYRQAPGKERELVAVISTSGGSTFYADSVKGRFTISRDNAKKTVYLQMNSLKPEDTAVYYCAADFIVAYTLHGSYDYWGQGTQVTVSS,low polyreactivity
20,QVQLQESGGGLVQARGSLRLSCSASGNISVNGFMGWYRQAPGNVRELVASIGIGGTTYYADSVKGRFSISRDNAKNTVYLQMNSLKPEDTSVYYCAASYLYYAYSYWYQGTQVTVSS,low polyreactivity
21,QVQLVESGGGLVQAGGSLRLSCAASGGIFFINAMGWYRQAPGKERELIAAISISDGSTYYADSVKGRFTISRDNAKNTVYLQMNSLKTEDTAVYYCAADYDVLRLGYARIPLYDYWGQGTQVTVSS,low polyreactivity
